Measurements from patent US20040024191, “Multimerized DBH enhancer domains” (published 2004).

Biological target: His6-Phox2a (1-149) (Mus musculus, UniProt Q62066 Q62066:1-149)
Assay: footprint; DNase I footprint
Conditions: tags: N-terminal His6, pET15b, E. coli BL21(DE3); label: 32P

Chain of His6-Phox2a (1-149) (Q62066 1-149, one chain of several): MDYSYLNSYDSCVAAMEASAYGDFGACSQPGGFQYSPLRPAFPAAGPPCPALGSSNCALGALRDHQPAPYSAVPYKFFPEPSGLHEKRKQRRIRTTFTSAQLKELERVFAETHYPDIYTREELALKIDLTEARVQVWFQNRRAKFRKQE

B1: PBS3 (dsDNA)
DNA 1: GAGGGAAAATTGGATTCCCCG
DNA 2: CGGGGAATCCAATTTTCCCTC
B1: binds.
